Values of other authors in publication PMC6006206.

Biological target: SufE (UniProt A7ZME4)
UniProt A7ZME4, sequence (A7ZME4 whole entry): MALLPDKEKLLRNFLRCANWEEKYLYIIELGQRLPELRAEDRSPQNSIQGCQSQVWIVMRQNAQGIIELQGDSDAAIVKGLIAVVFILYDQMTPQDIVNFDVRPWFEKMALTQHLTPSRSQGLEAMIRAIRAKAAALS

Kd: 360 nM
Substance: SufS (from UniProt A7ZME5)
